# Source: IntAct's records for PubMed 20173742
# B1: Kelch-like ECH-associated protein 1 (Mus musculus), Q9Z2X8 (parent)
# chain: MQPEPKLSGAPRSSQFLPLWSKCPEGAGDAVMYASTECKAEVTPSQDGNRTFSYTLEDHTKQAFGVMNELRLSQQLCDVTLQVKYEDIPAAQFMAHKVVLASSSPVFKAMFTNGLREQGMEVVSIEGIHPKVMERLIEFAYTASISVGEKCVLHVMNGAVMYQIDSVVRACSDFLVQQLDPSNAIGIANFAEQIGCTELHQRAREYIYMHFGEVAKQEEFFNLSHCQLATLISRDDLNVRCESEVFHACIDWVKYDCPQRRFYVQALLRAVRCHALTPRFLQTQLQKCEILQADARCKDYLVQIFQELTLHKPTQAVPCRAPKVGRLIYTAGGYFRQSLSYLEAYNPSNGSWLRLADLQVPRSGLAGCVVGGLLYAVGGRNNSPDGNTDSSALDCYNPMTNQWSPCASMSVPRNRIGVGVIDGHIYAVGGSHGCIHHSSVERYEPERDEWHLVAPMLTRRIGVGVAVLNRLLYAVGGFDGTNRLNSAECYYPERNEWRMITPMNTIRSGAGVCVLHNCIYAAGGYDGQDQLNSVERYDVETETWTFVAPMRHHRSALGITVHQGKIYVLGGYDGHTFLDSVECYDPDSDTWSEVTRMTSGRSGVGVAVTMEPCRKQIDQQNCTC
# partner: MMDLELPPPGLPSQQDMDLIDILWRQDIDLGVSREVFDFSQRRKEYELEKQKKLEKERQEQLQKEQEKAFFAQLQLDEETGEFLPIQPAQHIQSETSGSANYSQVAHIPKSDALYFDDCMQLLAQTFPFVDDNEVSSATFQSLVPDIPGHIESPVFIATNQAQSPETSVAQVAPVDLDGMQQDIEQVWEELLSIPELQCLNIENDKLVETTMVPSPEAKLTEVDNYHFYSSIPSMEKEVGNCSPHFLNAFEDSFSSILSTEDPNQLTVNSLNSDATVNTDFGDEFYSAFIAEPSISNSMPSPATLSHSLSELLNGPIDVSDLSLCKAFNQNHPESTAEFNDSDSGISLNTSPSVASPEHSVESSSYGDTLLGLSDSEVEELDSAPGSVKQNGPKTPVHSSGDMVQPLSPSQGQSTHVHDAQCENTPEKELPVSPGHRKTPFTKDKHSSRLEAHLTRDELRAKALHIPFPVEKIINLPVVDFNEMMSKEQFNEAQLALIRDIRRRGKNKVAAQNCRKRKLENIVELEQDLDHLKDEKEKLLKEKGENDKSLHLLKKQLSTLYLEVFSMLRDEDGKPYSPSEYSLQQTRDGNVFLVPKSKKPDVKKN
# Variants of: B1
# Conditions: with nf2l2_human NFE2L2, Q16236
row,Variant,effect of a mutation on the interaction
1,Y334A,disrupting interaction
2,S602A,disrupting interaction
3,R415A,disrupting interaction
4,N382A,disrupting interaction
5,S363A,disrupting interaction
6,S555A,decreasing interaction
7,R380A,decreasing interaction
8,S508A,disrupting interaction
9,Q530A,decreasing interaction
